According to PMC4598844, “BAP1 promotes breast cancer cell proliferation and metastasis by deubiquitinating KLF5” (Nature Communications, 2015):

Biological target: T1, GST-BAP1, purified recombinant (human, UniProt Q92560 1-729)
T1 construct: BRCA1-associated protein 1 (BAP1), human, wild type, cloned from MCF10A cells into pGEX-6p-1; also called purified GST-BAP1; source: E. coli BL21 (DE3), purified (glutathione sepharose 4B)
T1 sequence (looked up): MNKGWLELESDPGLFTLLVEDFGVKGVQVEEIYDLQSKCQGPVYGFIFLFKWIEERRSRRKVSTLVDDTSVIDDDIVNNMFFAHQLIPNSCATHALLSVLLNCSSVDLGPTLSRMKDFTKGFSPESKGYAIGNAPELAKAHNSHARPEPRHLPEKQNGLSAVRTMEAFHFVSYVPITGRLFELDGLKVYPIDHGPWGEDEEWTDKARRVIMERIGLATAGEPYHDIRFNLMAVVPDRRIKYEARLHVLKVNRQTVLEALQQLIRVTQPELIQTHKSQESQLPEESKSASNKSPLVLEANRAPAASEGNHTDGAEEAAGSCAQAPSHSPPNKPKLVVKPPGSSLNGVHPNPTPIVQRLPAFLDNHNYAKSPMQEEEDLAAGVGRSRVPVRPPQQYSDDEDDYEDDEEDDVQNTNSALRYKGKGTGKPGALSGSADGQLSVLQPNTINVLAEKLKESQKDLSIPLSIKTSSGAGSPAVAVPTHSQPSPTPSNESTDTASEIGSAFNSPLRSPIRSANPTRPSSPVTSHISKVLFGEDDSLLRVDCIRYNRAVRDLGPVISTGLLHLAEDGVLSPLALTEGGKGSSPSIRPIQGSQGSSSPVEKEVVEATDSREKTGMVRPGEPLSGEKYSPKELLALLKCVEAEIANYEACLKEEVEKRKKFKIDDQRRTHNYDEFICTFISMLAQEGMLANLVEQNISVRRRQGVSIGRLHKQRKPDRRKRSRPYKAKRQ
Assay: pull-down; purified recombinant GST-BAP1 (and GST) pulled down with glutathione beads; KLF5-6 × His detected by WB
Settings: both partners purified

binding result: binds
B1: KLF5-6 × His, purified recombinant (natural protein)
chain: not shown
notes: Krüppel-like zinc-finger transcription factor 5 (KLF5), subcloned into the pET28-3C vector; The tag is printed after the protein's name; not repeated for this construct; source: E. coli BL21 (DE3), purified (Ni-NTA)
